Results on two molecules are retold here after article PMC2927781, “Allosteric Remodelling of the Histone H3 Binding Pocket in the Pygo2 PHD Finger Triggered by Its Binding to the B9L/BCL9 Co-Factor” (Journal of Molecular Biology, 2010).

The experiment concerns the target T1, 15-mer H3K4me2 histone tail peptide (histone H3 tail dimethylated at lysine 4) (dimethyl-lysine at K4).
T1 construct: histone H3 N-terminal tail, 15-mer peptide, K4 dimethylated; numbers count on: the mature protein (A1 is the N-terminal residue); Surmise: residues 1-15 of the mature histone H3 (A1 to A15); also called dimethylated histone H3 tail peptide
Kind of experiment: ITC; H3K4me2 peptide injected (19 x 2 ul) into the protein; 25 °C; 25 mM Tris pH 8.0, 100 mM NaCl; iTC 200; one-site model. Particulars: both partners purified.

Changes are numbered by the printed parent chain. Names may count otherwise.

B1: PHD_(Pygo1)–HD1_(BCL9) complex with Pygo1 W390F (complex)
chain: VYPCGICTNEVNDDQDAILCEASCQKWFHRICTGMTETAYGLLTAEASAVFGCDTCMADKDVYVFSTEMANKAAEAVLKGQVETIVSFHI
In turn, B1 displayed a Kd of 10.3 µM.

B2: PHD_(Pygo1)–HD1_(BCL9) complex with Pygo1 I357A (complex)
chain: B1 chain with I18A, F51W
For the molecule B2, the Kd worked out at 13.5 µM.
